In patent US20260242478A1 (published 2026):
Where no end group is shown, it is not given here.

How the values were obtained:
PSMA Fab [1] = target: T1, PSMA Fab; experiment: phage binding ELISA; biotinylated PSMA Fab on neutravidin plate, wells pre-incubated with PSMA antigen as competitor, clonal phage supernatant, anti-M13 HRP detection
T1 construct: also called Anti-PSMA Fab; 006 PSMA Fab
Experimental: (§1) Clonal phage were harvested as crude supernatants and screened via standard ELISAs. […] Prior to the addition of clonal phage. wells were incubated with blocking buffer and PSMA antigen or blocking buffer alone. Without washing or aspirating, clonal phage supernatants were then added to the wells and incubated for a short time. Wells were then washed followed by detection of bound phage using a horse radish conjugated anti-M13 antibody.

PSMA Fab [2] = target: T1, PSMA Fab; experiment: phage binding ELISA; biotinylated PSMA Fab on neutravidin plate, clonal phage supernatant, anti-M13 HRP detection; blocking buffer alone;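 further: before phage were added, wells were preincubated with blocking buffer either containing PSMA antigen or without it, and phage were then added with no wash in between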
Experimental: as §1

PSMA Fab (006 PSMA Fab) [3] = target: T2, PSMA Fab (006 PSMA Fab); experiment: clonal phage ELISA on biotinylated PSMA Fab captured on neutravidin, anti-M13-HRP detection;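 further: crude clonal phage supernatants added to wells preincubated with PSMA antigen in blocking buffer or with blocking buffer alone, brief binding period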
T2 construct: also called Anti-PSMA Fab; anti-PSMA Fab
Experimental: as §1

PSMA Fab (006 PSMA Fab) [4] = target: T2, PSMA Fab (006 PSMA Fab); experiment: clonal phage ELISA on captured PSMA Fab, wells pre-incubated with PSMA antigen as competitor
Experimental: as §1

PSMA Fab (006 PSMA Fab) [5] = target: T3, PSMA Fab (006 PSMA Fab); experiment: phage ELISA; biotinylated PSMA Fab on neutravidin plate, clonal phage supernatant, anti-M13 HRP; blocking buffer alone
T3 construct: also called Anti-PSMA Fab; anti-PSMA Fab
Experimental: as §1

PSMA Fab (006 PSMA Fab) [6] = target: T3, PSMA Fab (006 PSMA Fab); experiment: phage ELISA; biotinylated PSMA Fab on neutravidin plate pre-incubated with PSMA antigen as competitor, clonal phage supernatant, anti-M13 HRP
Experimental: as §1

| Binder | Phage binding ELISA signal, Anti-PSMA Fab in presence of PSMA (PSMA Fab [1]) | Phage binding ELISA signal, Anti-PSMA Fab (PSMA Fab [2]) | Phage binding ELISA signal, Anti-PSMA Fab (PSMA Fab (006 PSMA Fab) [3]) | Phage binding ELISA signal, Anti-PSMA Fab in presence of PSMA antigen (PSMA Fab (006 PSMA Fab) [4]) | other results |
| --- | --- | --- | --- | --- | --- |
| LERLCQPSWMCTGF (cysteine pairing not given here; also: fused to phage pIII, linker and order not given here, Peptide-180 library clone, tested as clonal phage supernatant; not shown: pIII filament protein of the bacteriophage, to which the peptide is fused) [Phage-3204] | 0.0739 | 1.98 |  |  |  |
| DMRVCKPEWMCTGL (peptide, not shown: large carriers, Clonal phage of the Peptide-180 library, tested as crude supernatant) [Phage-3188] |  |  | 2 | 0.109 |  |
| VEVRCVPAWMCTGF (peptide, not shown: large carriers, Clonal phage of the Peptide-180 library, tested as crude supernatant) [Phage-3196] |  |  | 1.99 | 0.0941 |  |
| LSAMCVPPWMCTGF [Phage-3244] |  |  |  |  | Phage binding ELISA signal, Anti-PSMA Fab (PSMA Fab (006 PSMA Fab) [5]): 1.94; Phage binding ELISA signal, Anti-PSMA Fab with PSMA antigen (PSMA Fab (006 PSMA Fab) [6]): 0.138 |
| HDPACVPSWMCFGF (cysteine pairing not given here; also: fused to phage pIII, linker and order not given here, Peptide-180 library clone, tested as clonal phage supernatant; not shown: pIII filament protein of the bacteriophage, to which the peptide is fused) [Phage-3207] | 0.0668 | 1.98 |  |  |  |
| GFRICEPEWMCVGF [Phage-3240] |  |  |  |  | Phage binding ELISA signal, Anti-PSMA Fab (PSMA Fab (006 PSMA Fab) [5]): 1.94; Phage binding ELISA signal, Anti-PSMA Fab with PSMA antigen (PSMA Fab (006 PSMA Fab) [6]): 0.0629 |
| DTPKCIPQWMCVGF (cysteine pairing not given here; also: fused to phage pIII, linker and order not given here, Peptide-180 library clone, tested as clonal phage supernatant; not shown: pIII filament protein of the bacteriophage, to which the peptide is fused) [Phage-3210] | 0.0677 | 1.97 |  |  |  |
| TVPLCKPLWMCYGF (cysteine pairing not given here; also: fused to phage pIII, linker and order not given here, Peptide-180 library clone, tested as clonal phage supernatant; not shown: pIII filament protein of the bacteriophage, to which the peptide is fused) [Phage-3212] | 0.184 | 1.97 |  |  |  |
| GLALCKPAWMCQGF [Phage-3247] |  |  |  |  | Phage binding ELISA signal, Anti-PSMA Fab (PSMA Fab (006 PSMA Fab) [5]): 1.93; Phage binding ELISA signal, Anti-PSMA Fab with PSMA antigen (PSMA Fab (006 PSMA Fab) [6]): 0.0706 |
| MVERCIPVWMCEGF [Phage-3241] |  |  |  |  | Phage binding ELISA signal, Anti-PSMA Fab (PSMA Fab (006 PSMA Fab) [5]): 1.94; Phage binding ELISA signal, Anti-PSMA Fab with PSMA antigen (PSMA Fab (006 PSMA Fab) [6]): 0.0937 |
| EVVMCRPLWMCSGF (peptide, not shown: large carriers, Clonal phage of the Peptide-180 library, tested as crude supernatant) [Phage-3192] |  |  | 2 | 0.0925 |  |
| LSPMCVPQWMCSGF (peptide, not shown: large carriers, Clonal phage of the Peptide-180 library, tested as crude supernatant) [Phage-3197] |  |  | 1.99 | 0.119 |  |
| ADLRCVPEWMCMGI (peptide, not shown: large carriers, Clonal phage of the Peptide-180 library, tested as crude supernatant) [Phage-3190] |  |  | 2 | 0.0654 |  |
| VTPLCVPKWMCELF (cysteine pairing not given here; also: fused to phage pIII, linker and order not given here, Peptide-180 library clone, tested as clonal phage supernatant; not shown: pIII filament protein of the bacteriophage, to which the peptide is fused) [Phage-3200] | 0.0878 | 1.98 |  |  |  |
| VSVRCEPEWMCMGF (cysteine pairing not given here; also: fused to phage pIII, linker and order not given here, Peptide-180 library clone, tested as clonal phage supernatant; not shown: pIII filament protein of the bacteriophage, to which the peptide is fused) [Phage-3203] | 0.0741 | 1.98 |  |  |  |
| PFAYCVPQWMCEAF (cysteine pairing not given here; also: fused to phage pIII, linker and order not given here, Peptide-180 library clone, tested as clonal phage supernatant; not shown: pIII filament protein of the bacteriophage, to which the peptide is fused) [Phage-3208] | 0.0639 | 1.98 |  |  |  |
| TVVKCVPEWMCEWL (cysteine pairing not given here; also: fused to phage pIII, linker and order not given here, Peptide-180 library clone, tested as clonal phage supernatant; not shown: pIII filament protein of the bacteriophage, to which the peptide is fused) [Phage-3206] | 0.0606 | 1.98 |  |  |  |
| GEAVCIPRWMCDGF (peptide, not shown: large carriers, Clonal phage of the Peptide-180 library, tested as crude supernatant) [Phage-3193] |  |  | 1.99 | 0.0937 |  |
